We go through 1 molecule from patent US12357604B2, “Topical formulations of cannabinoids and use thereof in the treatment of pain” (INMED PHARMACEUTICALS INC., priority 2017, dated 2025).

What all share (type): in vivo, Sprague-Dawley rats
For one test, the system named is CB1. The experiment in a line: Immunohistochemistry of masseter ganglion neurons after NGF injection: CB1. The following applies: 3 days after NGF 25 μg/ml, 10 μl; saline side 52±3%; n=5 rats. As for the experimental part:
(§1) To identify trigeminal ganglion neurons that innervate the masseter muscle, the fluorescent tracer dye Fast Blue (2%, Polysciences, Warrington, PA) was injected bilaterally into the masseter muscles of rats (n=5),7 days prior to euthanization. NGF (25 μg/ml, 10 μI, Sigma, St. Louis, MO) or vehicle (phosphate buffered saline, PBS, 10 μI) was injected into the left and right masseter muscles, respectively, three days before euthanization. Under deep isoflurane anesthesia, animals were perfused with 120 ml cold saline followed by 120 ml of paraformaldehyde (4%). Trigeminal ganglia and masseter muscles were removed, incubated in 20% and then 40% sucrose for 48h each to cryoprotect the tissue, and cut into 10 μm sections with a cryotome. […] Fast Blue positive cells were counted and photographed for estimation of cell diameter. […]
(§2) For the immunohistochemistry experiment, the frequency of expression of CB1, CB2 and TRPV1, respectively, in trigeminal ganglion neurons between NGF and vehicle-injected sides was analyzed with a paired Student's t-test. For the behavioral and electrophysiological experiments, MT from NGF and vehicle-injected sides was analyzed with a two-way repeated measures analysis of variance (ANOVA) with time and treatment as factors. Relative mechanical activation threshold (Rel MT) was calculated as 100×Post-treatment MT/Baseline MT. […]

Another test has as its system TRPV1. Description: Immunohistochemistry of masseter ganglion neurons after NGF injection: TRPV1. Conditions: 3 days after NGF 25 μg/ml, 10 μl; n=5 rats. The protocol:
as §1, §2

The subject of test [1] is NGF-induced sensitization in female rat masseter muscle. Description: Behavioral mechanical threshold (electronic von Frey) of NGF-sensitized masseter muscle. The following applies: 3 days after intramuscular injection of NGF 25 μg/ml, 10 μl. The text has this:
Female (259-350 g, n=55) Sprague-Dawley rats were used for all experiments. Animals were housed in groups of two with a 12-h light/dark cycle. Food and water were given ad libitum. All animal procedures were reviewed and approved by the University of British Columbia Animal Care Committee.
Appropriate volumes of each solution were evaporated under nitrogen gas, and subsequently re-solubilized with 4% Tween 80 in isotonic saline to final concentrations used for injection.
Three days before behavioral experiments, rats received an injection of NGF (25 μg/ml, 10 μl, Sigma, St. Louis, MO) or vehicle (phosphate buffered saline, PBS, 10 μl) into the left and right masseter muscles, respectively, under brief isoflurane anesthesia. […] This is accompanied by an increase in NMDA receptor expression in peripheral trigeminal ganglion neurons with a peak at three days after injection (15). […] The masseter muscle region was shaved prior to injection and the injection sites were marked with a permanent marker for subsequent identification. The concentration of NGF was selected based on the concentration used in previous human experimental pain studies and experiments in rats (15, 24, 25, 26, 27). The investigator was blinded to the identity of the treatment groups until after all data was collected.
MT was assessed with a rigid electronic von Frey hair (IITC Life Science, Woodland Hills, CA). Before NGF injection, rats were habituated to restraint in a towel. […] The mechanical test stimulus was applied at 1 min intervals for 5 min and the average was calculated for further analysis. MT was measured daily for 5 days prior to the start of the experiment to determine that measurements were stable. MT readings recorded prior to NGF injection were used as naïve baseline. […] On the test day, a post-NGF injection baseline (NGF baseline) was recorded before injection of cannabinoid treatment groups. After treatment injections, MT was measured at 10, 30, 60, and 120 min after injection.
For the immunohistochemistry experiment, the frequency of expression of CB1, CB2 and TRPV1, respectively, in trigeminal ganglion neurons between NGF and vehicle-injected sides was analyzed with a paired Student's t-test. For the behavioral and electrophysiological experiments, MT from NGF and vehicle-injected sides was analyzed with a two-way repeated measures analysis of variance (ANOVA) with time and treatment as factors. Relative mechanical activation threshold (Rel MT) was calculated as 100×Post-treatment MT/Baseline MT. Post hoc Holm Sidak's multiple comparison tests were used to compare post injection mechanical thresholds between treatment groups at each time point. One-way repeated measures ANOVA on ranks was used to analyze test scores in the inverted screen tests. A probability level of 0.05 was considered significant for all tests. Error bars represented standard error of the mean.

In the next test the test system is CB2. Description: Immunohistochemistry of masseter ganglion neurons after NGF injection: CB2. The following applies: 3 days after NGF 25 μg/ml, 10 μl; saline side 47±5%; n=5 rats. The protocol:
as §1, §2

B1: NGF: nerve growth factor (Sigma) injected into masseter muscle to induce mechanical sensitization (protein, UniProt P01139 122-241, looked up)
Beta-nerve growth factor: SSTHPVFHMGEFSVCDSVSVWVGDKTTATDIKGKEVTVLAEVNINNSVFRQYFFETKCRASNPVESGCRGIDSKHWNSYCTTTHTFVKALTTDEKQAAWRFIRIDTACVCVLSRKATRRG
In the case of B1, in the test with CB1, the “Frequency of expression of CB1 in masseter ganglion neurons, NGF-injected side” value is 39±3%. In addition, the “Effect on TRPV1 expression in masseter ganglion neurons” value in the test with TRPV1 was “No significant effect”. Further, in test [1], the “Decrease of masseter muscle MT” value turned out to be 31%. Besides, in the test with CB2, the “Frequency of expression of CB2 in masseter ganglion neurons, NGF-injected side” value was determined as 33±6%.
